The source of these data is a protein production outcome set (Wang et al. 2014).
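Note: failed if final PepcDB status was selected cloned or expressed and not failed if soluble or beyond.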

The nature of this data set: label from the status in PepcDB records.
Consider “MAQDIIDGINPTRMELLSLKNRTKLAVKGHGLLKEKRDALIKEFFDILDRVKGVREAAERSLKEANEALLEAQIAMGDLAVRKASLSVKESIDVDIKSRSVMGVSVPVTNVKMEERSIIDRGYSFSDTTIQLDEAAKKFEESIKFLIELGEVEKTIFLLAEEIEATKRRVNALEHIMIPRFENTEKYIDMRLQEMERENFVRLKMIRSTIEKKDNEAKEAAIEEEAAEVEA”, for which the protein production result is listed as “failed”.

Turning to “MCQSNQIVSHFLSHRNVTNELAEKISKDHYSYKPAETSMSAEELVKHILTSFHLFANVIKEGNASPFQNKQEETETDLNVLAKTYTEKTVAILEQLTEEQLDREIDLTSAFGRKVTGRALLQLAMEHEIHHKGNLFVYVREMGHTELPFYQQRM”, the protein production result was “not failed”.

In the case of “MALSGGDDQVPPGGPMTVSTRLIDAGSTIMQRRLPVKQMNTHVSTFAIYGGDMSRLIGTHHYVHRVNDEFLQCAVYASDRSDAPLIGIEYVISDRLYETLSEDEQKLWHSHAYEVKSGSWAYPRLPEVVAAPELKNIAKTYGKFWCTWQIDRGDKLPMGAPELMMSPQGVGQGVLRPELVKRRDEKYNISTDDLKHTRAEIAEPEWINPMADYWKQHGKCFVLDIATVEMNRHAQFP”, the protein production entry is on record as “failed”.

Regarding “MAKGGFPGFGGNINNLVKQAQKMQRDMERVQEELKEKTVEASAGGGAVTVVATGRKDIKEITIKPEVVDPDDVEMLQDLILAAVNEALRKADEMVTAEISKITGGLGGIPGLF”, the protein production entry is listed as “not failed”.

On to “MTTEIKKLDPDTAIDIAYDIFLEMAGENLDPADILLFNLQFEERGGVEFVETADDWEEEIGVLIDPEEYAEVWVGLVNEQDEMDDVFAKFLISHREEDREFHVIWKK”, for which the protein production entry was “not failed”.

Consider “NQQTPTFYVHGFQGSAKSTNTLIAHAEKTAHAHKVLVATVSTSGQVTLTGKWRGRVRNPIIQVVFKNNLAQYDQQSAWLAKVITTVQQQHAFKHYNIVAHSAGCVASVNMLMTQQTTTFPKINKLVTIAGPFDGVVGEDDVANQNSFLTSGQPKYLHAAYELLAAKRNNFPKNVQLLNIVGTLNDGSHSDSLVTNVSARSIKYLLRGRDVDYTEKDFYGAHAQHSQLHENAKVALAVDRFLWHR”, for which the protein production entry is reported as “failed”.

As to “MIKLIVSDLDETLVGPDGNVSEENIEAIKKATQKGVKFVPNTGRGFESVQPLLETLGLKGKANEFVISYNGGVIVENQNFDVIQANAFSFEQATQIFDITKQHLENSTHIYTLNDVYVFNEVEEDNEYIRSRGVRTIRFEHDNLDTLKDEPIFKIITMNPDFNKRKQIKAEVLDKVNFDVNATFSSDRYTEFNLKGVDKGQASLELGRHLGIKADEIMALGDNNNDVAMLKSVGLPVVVSNASASAKANAKYIAKGNYETGVAEAINKFVLGE”, the protein production entry is listed as “failed”.

“MSNNSKISWTTTTWNVTAGCDPISDGCKNCYARMMAERLKAMGQAKYQNGFIPTIHSECLNEPFGWKGNKLVFVVSMGDLFHKDIPFDFIDKVIEVITKCPQHTFQILTKRAERMYEYFSTHAIPENVWLGVTVENQKVKGRIDYLKKLDAPVRFLSCEPLLEDLGTLDLSDIDWVIVGGESGNRARKVEKDWILNIKSQCDASTSTAFFFKQWGTWGADGVKRSAKENGCLLDGKEYHAYPTPRKIKPLEHHHHHH”: the protein production result was “not failed”.

In the case of “MEIKPGLSALVTGGASGIGRALCLALAEKGVFVTVADFSEEKGQETTSLVREANAKFHQGLSFPSAIFVKCDVTNRGDLLAAFDKHLATFGTLDICINNAGISTPLRFDKDDTDGSKSWKHTINVDLIAVVEGTQLAIKAMKAKQKPGVIINMGSAAGLYPMPVDPIYAASKAGVVLFTRSLAYYRRQGIRINVLCPEFIKTDLAEAIDASILESIGGYMSMDMLIKGAFELITDEKKAGACLWITKRRGLEYWPTPMEETKYLVGSSSRKRPSFKVSTKIEFPQSFEKMIVHTLSHKFRSATRIVRAPLQLPIGPHQVLLKIIYAGVNASDVNFSSGRYFTGGSPKLPFDAGFEGVGLIAAVGESVKNLEVGTPAAVMTFGAYSEYMIVSSKHVLPVPRPDPEVVAMLTSGLTALIALEKAGQMKSGETVLVTAAAGGTGQFAVQLAKLSGNKVIATCGGSEKAKLLKELGVDRVIDYKSENIKTVLKKEFPKGVNIIYESVGGQMFDMCLNALAVYGRLIVIGMISQYQGEKGWEPAKYPGLCEKILAKSQTVAGFFLVQYSQLWKQNLDKLFNLYALGKLKVGIDQKKFIGLNAVADAVEYLHSGKSTGKVVVCIDPAFEQKTSRL”, the protein production result is reported as “failed”.

As for “MKAALLDQVARVGKALANGRRLQILDLLAQGERAVEAIATATGMNLTTASANLQALKSGGLVEARREGTRQYYRIAGEDVARLFALVQVVADEHLEHHHHHH”, the protein production entry is recorded as “not failed”.

As to “MSWYRRTKLVFDSLRRNINPKILPRSHVTSRINNPIGSSNPSAKFSSISSREVGLRSWTSLGRNTNRIAYNPFLSQPKRYYYVDRYQVRHFKPRGPGRWFQNPRTVFTVVLVGSVGLITLIVGNTETIPYTKRTHFILLSKPMEKLLGETQFEQIKKTYQGKILPATHPESIRVRLIAKEVIDALQRGLSNERVWSDLGYASTESSLGGGSDKGVKEMEMAMSGEDTMTDMKWSKEDQVLDDQWIQKSRKKDSKAHAATSHLEGISWEVLVVNEPIVNAFCLPAGKIVVFTGLLNHFKSDAEVATVIGHEVGHAVARHVAEGITKNLWFAILQLVLYQFVMPDLVNTMSALFLRLPFSRKMEIEADYIGLLLLASAGYDPRVAPTVYEKLGKLGGDALGDYLSTHPSGKKRSKLLAQANVMEEALMIYREVQAGRTGVEGFL”, the protein production entry is “failed”.

Take “MRKVLVTVLLVLTVLSLFSAVKIAVILPMTGGISAFGRMVWEGIQIAHEEKPTVLGEEVELVLLDTRSEKTEAANAAARAIDKEKVLAIIGEVASAHSLAIAPIAEENKVPMVTPASTNPLVTQGRKFVSRVCFIDPFQGAAMAVFAYKNLGAKRVVVFTDVEQDYSVGLSNFFINKFTELGGQVKRVFFRSGDQDFSAQLSVAMSFNPDAIYITGYYPEIALISRQARQLGFTGYILAGDGADAPELIEIGGEAVEGLLFTTHYHPKAASNPVAKKFVEVYKEKYGKEPAALNALGYDAYMVLLDAIERAGSFDREKIAEEIRKTRNFNGASGIINIDENGDAIKSVVVNIVKNGSVDFEAVINPDDLK”: the protein production result is on record as “not failed”.

Regarding “MKKRHLLIAGLACMTILGACNNDDAGSSGQAVVEVDGHEISDAEFVDMLKERYGEAILQELVQRHLISQAADSVEIPQEEIDEELETFKSQIGVETDDEMLDALSNQFGITVENKEEFVNEYILPPLVLEKLAVEGVEITDEEKQAYFDENRDSLIEVEASHILVEDEETAEEVLDRLEAGDDFAELASEYSVDPSAEANNGDLGFFGKGDMVPEFEEAAFNMEIDEVSEPVESTYGYHIILVTDRKDSYEELEEKIHDTLMRERSRTQEEVLRDLLAQADINVLDDQFEGLFDLPDAPPVEDTPEIDGEDASDEAEDQAEDADENAEEEDES”, the protein production entry is reported as “failed”.

“MLVDSQYKECVKEIINWGLFLYSEESRRNLIHDSLVELRCHFTWELVIKDNYMPDLEAKILETEFLDTNYNMGMHNLMAYVRHLKGEQEEALQSLKEAEALIEGEQLGKRSLVTWGNCAWVHYHRGSLAEAQIYLDKVENVCREFASPFRYRMECAEIDCEEGWALLKCGGSNCTRAMACFAKALQEEPENPEYNAGYAITAFRMDFSNEISLEPLRKAVRLNPEDPHLKVLLALKLQDLGKQDEAEKHIEEALPKIPSRNNIFGYVAKFYRRKGCVEEALEFLERALKTKPSSVYLHFQIGLCHKSRVFQIKEATNMHPKGKDRERADQSIRSAIYYFEKTLDLKPTYERAYIDLAEMYAESKQFEEAEEAFQKVLSMLSNLEVHMQQEIHFRYGKFQQFHMKSENIAITHYLKGLKIEVTSIFRDKLLKALQKLAERRMQQNVHVLESLSLLGFVYRLKGDTRKAMSCYEKALRLTEELNPEF”: the protein production result was “failed”.

On to “ELLKSGKAKDRFEGEENAPVTIVEYASLTCVHCAHFYNDVLPQIRKKYIKTGKVKLIFRDFAFDSRATAGFMLARCAPEDRYFPLIEVLFQKQSEWVWARDAVTPLKKIGLMAGFTDESFNACLKNQSILDEVNASFERGKELGVNATPTFFINGNKYEGAMSVEAFFSVIDSFLKN”, for which the protein production result is “not failed”.

“MFRSKRYQMVAYAITGSALWGLSGTVSSILFSRYGMPFSTLVTIRMVFSGLILLAAGRGFVGKKDLPMFLVFAIPGLFGVQILYLATISFSNAPVATLLQFLFFPMVAVYDYITIRSLTVSSLILALIFSVAGIYELTTGFPLGGTALRISLTALILGLATAATAALYTVTSARIVKEYGGLRTVASGMMVGGLVSLPLGSFSGVPYFHGLGQADVIPVLALTIFVIVFGTSMAFYLYINSMRYISPVEAAVSGTFEPVAAAMSSYLLLGIKLSAMQYLGGALIVISILVIVISKNRRG”: the protein production result is “failed”.

In the case of “MTSPSSAFPDGHGARLDAQSIRFERLLPGPIERVWAWLADADKRARWLAGGELPRQPGQTFELHFNHAALTAETAPARYAQYDRPIVARHTLLRCEPPRVLALTWGGGAGEAPSEVLFELSEAGEQVRLVLTHTRLADRAAMLDVAGGWHAHLAVLAGKLAGQAPPPFWTTLAQAEQDYEQRLLEHHHHHH”, the protein production result is recorded as “not failed”.

Regarding “SRGMTPGSRLIDYQLIDSTEELAAILGCGHPSSIHKITRVRLANDIPMAIESSHIPFELAGELNESHFQSSIYDHIERYNSIPISRAKQELEPSAATTEEANILGIQKGAPVLLIKRTTYLQNGTAFEHAKSVYRGDRYTFVHYMDRLS”, the protein production result is “failed”.

Take “MIFNSARLKDMDIQYQILRQIEKYQTIIIHRHQRPDPDAVGSQLGLKNGLQAAFPEKNIYAVGKEITGLAWVGSMDIIPDSTYENALVIVIDTANVARIDDDRFKNGDKLIKIDHHPNDEPYGDLMWVEPGRSSCSEMVTFFLDDNIPLLLTDEAARNLYIGIVGDTGRFMYASTPETFIAVSKLYHFSIDYERVNREMSSISLVQARFSGKVYDEMKVEDHVGWITLTKAEIEAGHLGNEGTNFVVGMFGSIKEVLVWANFIENDDGSYRVRLRSKGPNVNEIAKLHNGGGHDMASGAKAKDQTEIDQIIKELKESANIFSTSLEKTAK”: the protein production entry was “failed”.

With “MKHIIILGDGMADWPAESLGNKTLLQYSSTPYMDKLAAMGRTGRLVTVAPGFHPGSEVANMSVMGYNLPKVYEGRGPLEAASIGVELQPGDMAMRCNIICIEDEKIKNHSAGHITTEEADVLVRYLEEKLGSDRIHFYTGVQYRHLLVIKGGNKQLDCTPPHDVPLQPFRPLMVKAEVPEAQETAGLINNLILASQELLADHPVNQKRIAEGKDPANSIWPWSPGYRPQMEPLSGKYPAIKKGAVISAVDLINGIGHYAGLRRIAVEGATGLYNTNYENKVAAALEALKTDDFVYLHIEASDEAGHEGDFKLKQFTIENLDKRVVGPVYEAVKDWDEPVAIAVLPDHPTPCELRTHTAEPVPFLIYYPGIEPDCVQTFDEVACVEGSYGILKEDEFMNEFMKK”, the protein production result was “failed”.
